Measured values as given in paper PMC10425836, “Cryo‐EM structure of antibacterial efflux transporter QacA from Staphylococcus aureus reveals a novel extracellular loop with allosteric role” (The EMBO Journal, 2023).

Tests used:
QacAWT tagged with GFP = molecular target: T1, QacAWT tagged with GFP (Staphylococcus aureus, UniProt P0A0J9); test: immunostaining of cells or tissue; NHS-Rhodamine labelled ICabs (0.03 mg/ml) added to E. coli spheroplasts expressing GFP-tagged QacA, room temperature 30 min, washed, confocal microscopy; conditions: one partner purified
T1 construct: QacA wild type, 14 transmembrane helix MFS (DHA2) antibacterial efflux antiporter of Staphylococcus aureus; codon-optimized synthetic gene in pBAD-His8; the methods of the spheroplast imaging name only QacA_(D411N)-GFP; also called QacA-GFP; source: on E. coli spheroplasts; not shown: GFP, C-terminal, kept

[1] = molecular target: ICab B7 displayed on the yeast cell surface; test: flow cytometry on cells; yeast cells displaying the ICab incubated with different concentrations of purified QacA_(D411N)-GFP; population shift-based titration; one site-specific binding fit; apparent Kd
the identified ICabs = test: as above
[2] = molecular target: ICab A4 displayed on the yeast cell surface; test: as above
five unique clones = test: flow cytometry on cells; yeast cells displaying individual ICab clones with QacA_(D411N)-GFP; percent population shift

| Binder | binding result (QacAWT tagged with GFP) | Kd [1] [nM] | Kd (the identified ICabs) [nM] | Kd [2] [nM] | population shift (five unique clones) [%] |
| --- | --- | --- | --- | --- | --- |
| ICab A4, purified (VHH, single-domain Indian camelid antibody A4 from a camel immunised with QacA; source: E. coli SHuffle T7, purified (Ni-NTA, SEC)) VHH: QVQLQESGGGSVQTGGSLRLSCAASGYRYSDNCVGWFRQAPGREREAVATYNSGSSTWYADSVKGRFTISQDSAKSTVYLQMNNLKPEDTAMYYCAGRNRLGSYCYMTGDFAYWGQGTQVTVSS | binds |  |  |  |  |
| QacA_(D411N)-GFP (natural protein) MISFFTKTTDMMTSKKRWTALVVLAVSLFVVTMDMTILIMALPELVRELEPSGTQQLWIVDIYSLVLAGFIIPLSAFADKWGRKKALLTGFALFGLVSLAIFFAESAEFVIAIRFLLGIAGALIMPTTLSMIRVIFENPKERATALAVWSIASSIGAVFGPIIGGALLEQFSWHSAFLINVPFAIIAVVAGLFLLPESKLSKEKSHSWDIPSTILSIAGMIGLVWSIKEFSKEGLADIIPWVVIVLAITMIVIFVKRNLSSSDPMLDVRLFKKRSFSAGTIAAFMTMFAMASVLLLASQWLQVVEELSPFKAGLYLLPMAIGDMVFAPIAPGLAARFGPKIVLPSGIGIAAIGMFIMYFFGHPLSYSTMALALILVGAGMASLAVASALIMLETPTSKAGNAAAVEESMYNLGNVFGVAVLGSLSSMLYRVFLDISSFSSKGIVGDLAHVAEESVVGAVEVAKATGIKQLANEAVTSFNDAFVATALVGGIIMIIISIVVYLLIPKSLDITKQK |  | 100 | 59 | 65 | 65 to 97 |
| ICab B7, purified (VHH, single-domain Indian camelid antibody B7 from a camel immunised with QacA; source: E. coli SHuffle T7, purified (Ni-NTA, SEC)) VHH: QVQLQESGGGSVQAGGSLRLSCAASGYTNSRKCMGWFRQIPGKEREGVAAIYGFGRGLILYADSVKGRFTISQDNAKNTVYLQMNSLKPEDTAMYYCAADSPGSCLSRSGYNYWGQGTQVTVSS | binds |  |  |  |  |
